Test results reported in US20200140526A1 (UNIVERSITY OF ROCHESTER, published 2020).

Tests used:
[1] = molecular target: T1, B/Brisbane/60/2008 (IBV) HA (influenza B virus B/Brisbane/60/2008 …, UniProt P22092 16-559); experiment: cell-based or functional assay
[2] = molecular target: A/Puerto Rico/08/1934 H1N1 (PR8 H1N1) HA (influenza A virus A/Puerto Rico/08/1934 …, UniProt P03452 18-528); experiment: cell-based or functional assay
A/Wyoming/3/2003 H3N2 HA = A/Wyoming/3/2003 H3N2 HA (influenza A virus A/Wyoming/3/2003 H3N2); experiment: cell-based or functional assay
B/Massachusetts/2/2012 = molecular target: T2, B/Massachusetts/2/2012; experiment: mPLEX-Flu multiplex bead assay, PE anti-human IgG, MFI heat map
T2 construct: column under B

[3] = molecular target: T1, B/Brisbane/60/2008 (IBV) HA; experiment: as above
A/Texas/50/2012 = experiment: as above
[4] = molecular target: A/South Carolina/01/1918 H1N1 HA (influenza A virus A/South …, UniProt Q9WFX3 18-529); experiment: as above

B1: KPF1 human monoclonal antibody (hmAb) (antibody, V domains shown)
VH: EVQLLESGGGLVQPGGSLRISCAASGSTFGDFAMSWVRQSPGRGLEWVSVTSAGGDRTYYADSVKGRFTISRDNSKNTLYLQMNSLRGEDTAMYYCARLDSSGFHYGRPGRNWGQGTLVTVSS
VL: DIQMTHSPPSLSASVGDRITITCQASQDISYYLIWYQQKPGKAPKPLIYDASNLEAGVPSRFSASGSGTDFTLTISSLQPEDLATYYCQQYKSLPYTFGQGTKLEIK
- NT50 (µg/ml), microneutralization, crystal violet [1]: > 200 µg/mL
- NT50 (µg/ml), microneutralization, crystal violet [2]: 146 µg/mL
- NT50 (µg/ml), microneutralization, crystal violet (A/Wyoming/3/2003 H3N2 HA): > 200 µg/mL
- binding result (B/Massachusetts/2/2012): no binding (tested: 1 ug/ml)
- binding result [3]: no binding (tested: 1 ug/ml)
- binding result (A/Texas/50/2012): no binding (tested: 1 ug/ml)
- binding result [4]: binds
